The results in this text go back to article PMC12440816.

In experiment [1] the target is MCM replicative helicase hexamer (Mcm2–7), loaded on DNA (Saccharomyces cerevisiae) (UniProt P29469).
Experiment [2] has the same target. The source holds these as a separate data set.
Experiment [3] has as its target Luc-MCM/Cdt1 (luciferase-tagged MCM in complex with Cdt1) [Saccharomyces cerevisiae]. Briefly: MCM recruitment assay (DNA pulldown, luciferase-tagged MCM) in ATPγS. Particulars: ARS1 origin, read off a plot.

With “MCM replicative helicase hexamer (Mcm2–7), loaded on DNA, P29469 1-868; P24279 1-971; P30665 1-933; P29496 1-775; P53091 1-1017; P38132 1-845”, in experiment [1], the high-salt-resistant luciferase-tagged MCM on the 300 bp[lacO] template, with IPTG against without IPTG, after free MCM–Cdt1 and Cdc6 were washed off was 3.3 fold. The high-salt-resistant luciferase-tagged MCM on the 300 bp[lacO] template at 30 min, with IPTG against without IPTG (SHs loaded by Orc2∆N behind a LacI roadblock) in experiment [2] was found to be 3.8 fold.
As for “origin recognition complex (ORC), wild type mutant Orc6:S106A; Orc6:S116A; Orc6:S123A; Orc6:T146A [Saccharomyces cerevisiae] / Luc-MCM/Cdt1 (luciferase-tagged MCM in complex with Cdt1) [Saccharomyces cerevisiae] chain 6 S106A, chain 6 S116A, chain 6 S123A, chain 6 T146A”, the values for the response in experiment [3] (+ CDK (Orc2 phosphorylated)) and in experiment [3] (- CDK (ORC not phosphorylated)) were 230 fmol and 250 fmol, respectively.
